One series has as its target T1, Abz-VDVADEA-Dap (Dnp).
T1 chain: VDVADEA

A further series concerns the target T2, Abz-VDVADQA-Dap (Dnp).
T2 chain: VDVADQA

A further series addresses T3, Abz-VDVADSA-Dap (Dnp).
T3 chain: VDVADSA

The next series concerns the target T4, Abz-VDVADIA-Dap (Dnp).
T4 chain: VDVADIA

In a further series the target is T5, Abz-VDVADVA-Dap (Dnp).
T5 chain: VDVADVA

Another series deals with T6, Abz-VDVADDA-Dap (Dnp).
T6 chain: VDVADDA

In the next series the target is T7, Abz-VDVADAA-Dap (Dnp).
T7 chain: VDVADAA

The next series has as its target T8, Abz-VDVADMA-Dap (Dnp).
T8 chain: VDVADMA

For another series, the target named is T9, Abz-VDVADKA-Dap (Dnp).
T9 chain: VDVADKA

Another series concerns the target T10, Abz-VDVADWA-Dap (Dnp).
T10 chain: VDVADWA

A further series concerns the target T11, Abz-VDVADGA-Dap (Dnp).
T11 chain: VDVADGA

A further series deals with T12, Abz-VDVADRA-Dap (Dnp).
T12 chain: VDVADRA

In another series the target is T13, Abz-VDVADPA-Dap (Dnp).
T13 chain: VDVADPA

The target of the next series is T14, Abz-VDVADHA-Dap (Dnp).
T14 chain: VDVADHA

For a further series, the target named is T15, Abz-VDVADTA-Dap (Dnp).
T15 chain: VDVADTA

The target of a further series is T16, Abz-VDVADLA-Dap (Dnp).
T16 chain: VDVADLA

The target of a further series is T17, Abz-VDVADFA-Dap (Dnp).
T17 chain: VDVADFA

The next series concerns the target T18, Abz-VDVADYA-Dap (Dnp).
T18 chain: VDVADYA

For another series, the target named is T19, Abz-VDVADNA-Dap (Dnp).
T19 chain: VDVADNA

Sequence of 6H-GSG-VDVAD-TNFalpha (chain, as listed by the source): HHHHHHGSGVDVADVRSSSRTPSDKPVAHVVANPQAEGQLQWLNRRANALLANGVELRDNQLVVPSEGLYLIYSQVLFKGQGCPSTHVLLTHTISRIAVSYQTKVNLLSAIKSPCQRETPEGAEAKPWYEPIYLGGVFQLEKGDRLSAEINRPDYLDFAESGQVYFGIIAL

B1: T7AC_6H_mS9ProE (protein)
chain: MLEDPERNKERKEAELQAQTAEQHHHHHHGKNHAGSPGCEESAAGKEKLPKMRLPTRSDMICGYACLKGTAAMRNTKRGSWYIEALAQVFSERACDMHVADMLVKVNALIKDREGYAPGTEFHRCKVMSEYCSTLCRHLYLFPGHPPTGSGPVCLQVKPCTPEFYQTHFQLAYRLQSRPRGLALVLSNVHFTDEKELEFRSGGDVDHSTLVTLFKLLGYDVHVLCDQTAQEMQEKLQNFAQLPAHRGTDSCIVALLSHGVEGAIYGVDGKLLQLQEVFQLFDNANCPSLQNKPKMFFIQACRGEETERGVDQQD
Turning to B1, the KM (usually the concentration of substrate that gives half-maximal velocity) with Abz-VDVADEA-Dap (Dnp) amounted to 110 µM; in the series with Abz-VDVADQA-Dap (Dnp), 120 µM; with Abz-VDVADSA-Dap (Dnp), 120 µM; with Abz-VDVADIA-Dap (Dnp), 130 µM; with Abz-VDVADVA-Dap (Dnp), 90 µM; in the series with Abz-VDVADDA-Dap (Dnp), 150 µM. Also, the Michaelis constant (KM) with T7AC-6H-GSG-VDVAD-hFGF-2 was found to be 298 µM; with Abz-VDVADAA-Dap (Dnp), 110 µM; in the series with Abz-VDVADMA-Dap (Dnp), 370 µM; in the series with Abz-VDVADKA-Dap (Dnp) it was 92 µM; with Abz-VDVADWA-Dap (Dnp), 56 µM; in the series with Abz-VDVADGA-Dap (Dnp), 43 µM. Further, the Michaelis-Menten constant (KM) stood at 68 µM with Abz-VDVADRA-Dap (Dnp); 120 µM with Abz-VDVADPA-Dap (Dnp); 160 µM in the series with Abz-VDVADHA-Dap (Dnp); 100 µM with Abz-VDVADTA-Dap (Dnp); 410 µM with Abz-VDVADLA-Dap (Dnp); 520 µM with 6H-GSG-VDVAD-TNFalpha. In addition, the KM with Abz-VDVADFA-Dap (Dnp) was 80 µM; with Abz-VDVADYA-Dap (Dnp), 420 µM; with Abz-VDVADNA-Dap (Dnp), 120 µM.

B2: T7AC_6H_cpCasp2D (protein)
chain: MLEDPERNKERKEAELQAQTAEQHHHHHHGKNHAGSPGCEESAAGKEKLPKMRLPTRSDMICGYACLKGTAAMRNTKRGSWYIEALAQVFSERACDMHVADMLVKVNALIKDREGYAPGTEFHRCKEMSEYCSTLCRHLYLFPGHPPTGSGPVCLQVKPCTPEFYQTHFQLAYRLQSRPRGLALVLSNVHFTGEKELEFRSGGDVDHSTLVTLFKLLGYDVHVLCDQTAQEMQEKLQNFAQLPAHRVTDSCIVALLSHGVEGAIYGVDGKLLQLQEVFQLFDNANCPSLQNKPKMFFIQACRGDETDRGVDQQD
As for B2, the KM turned out to be 200 µM in the series with Abz-VDVADEA-Dap (Dnp); 130 µM in the series with Abz-VDVADSA-Dap (Dnp); 62 µM in the series with Abz-VDVADIA-Dap (Dnp); 180 µM with Abz-VDVADDA-Dap (Dnp); 881 µM with T7AC-6H-GSG-VDVAD-hFGF-2; 120 µM in the series with Abz-VDVADAA-Dap (Dnp). Moreover, the KM is 340 µM with Abz-VDVADMA-Dap (Dnp); 110 µM with Abz-VDVADKA-Dap (Dnp); 36 µM in the series with Abz-VDVADWA-Dap (Dnp); 56 µM with Abz-VDVADRA-Dap (Dnp); 150 µM in the series with Abz-VDVADPA-Dap (Dnp); 110 µM in the series with Abz-VDVADHA-Dap (Dnp). The Michaelis-Menten constant (KM) was 89 µM with Abz-VDVADTA-Dap (Dnp); 160 µM with Abz-VDVADLA-Dap (Dnp); 280 µM in the series with 6H-GSG-VDVAD-TNFalpha; 300 µM with Abz-VDVADYA-Dap (Dnp); 87 µM with Abz-VDVADNA-Dap (Dnp).

B3: 6H_cpCasp2_S9_E105V (protein)
chain: MHHHHHHGKNHAGSPGCEESAAGKEKLPKMRLPTRSDMICGYACLKGTAAMRNTKRGSWYIEALAQVFSERACDMHVADMLVKVNALIKDREGYAPGTEFHRCKVMSEYCSTLCRHLYLFPGHPPTGSGPVCLQVKPCTPEFYQTHFQLAYRLQSRPRGLALVLSNVHFTGEKELEFRSGGDVDHSTLVTLFKLLGYDVHVLCDQTAQEMQEKLQNFAQLPAHRVTDSCIVALLSHGVEGAIYGVDGKLLQLQEVFQLFDNANCPSLQNKPKMFFIQACRGDETDRGVDQQD
As for B3, the KM was 180 µM with Abz-VDVADEA-Dap (Dnp); 130 µM in the series with Abz-VDVADQA-Dap (Dnp); 200 µM with Abz-VDVADSA-Dap (Dnp); 70 µM with Abz-VDVADIA-Dap (Dnp); 81 µM with Abz-VDVADVA-Dap (Dnp); 200 µM with Abz-VDVADDA-Dap (Dnp). The Michaelis constant (KM) was found to be 110 µM in the series with Abz-VDVADAA-Dap (Dnp); 830 µM with Abz-VDVADMA-Dap (Dnp); 97 µM with Abz-VDVADKA-Dap (Dnp); 51 µM with Abz-VDVADWA-Dap (Dnp); 57 µM with Abz-VDVADGA-Dap (Dnp); 48 µM in the series with Abz-VDVADRA-Dap (Dnp). For the same protein, the KM with Abz-VDVADPA-Dap (Dnp) was 250 µM; with Abz-VDVADHA-Dap (Dnp), 160 µM; with Abz-VDVADTA-Dap (Dnp), 150 µM; in the series with Abz-VDVADLA-Dap (Dnp), 300 µM; with Abz-VDVADFA-Dap (Dnp) it was 77 µM; in the series with Abz-VDVADYA-Dap (Dnp), 340 µM. Further, the KM in the series with Abz-VDVADNA-Dap (Dnp) came out at 100 µM.

B4: 6H_cpCasp2_G171D (protein)
chain: MHHHHHHGKNHAGSPGCEESAAGKEKLPKMRLPTRSDMICGYACLKGTAAMRNTKRGSWYIEALAQVFSERACDMHVADMLVKVNALIKDREGYAPGTEFHRCKEMSEYCSTLCRHLYLFPGHPPTGSGPVCLQVKPCTPEFYQTHFQLAYRLQSRPRGLALVLSNVHFTDEKELEFRSGGDVDHSTLVTLFKLLGYDVHVLCDQTAQEMQEKLQNFAQLPAHRVTDSCIVALLSHGVEGAIYGVDGKLLQLQEVFQLFDNANCPSLQNKPKMFFIQACRGDETDRGVDQQD
Consider B4, for which the Michaelis constant (KM) turned out to be 210 µM in the series with Abz-VDVADEA-Dap (Dnp); 160 µM in the series with Abz-VDVADQA-Dap (Dnp); 220 µM in the series with Abz-VDVADSA-Dap (Dnp); 78 µM with Abz-VDVADIA-Dap (Dnp); 96 µM in the series with Abz-VDVADVA-Dap (Dnp); 150 µM with Abz-VDVADDA-Dap (Dnp). Further, the KM was found to be 120 µM in the series with Abz-VDVADAA-Dap (Dnp); 610 µM with Abz-VDVADMA-Dap (Dnp); 94 µM with Abz-VDVADKA-Dap (Dnp); 56 µM with Abz-VDVADWA-Dap (Dnp); 75 µM with Abz-VDVADGA-Dap (Dnp); 65 µM with Abz-VDVADRA-Dap (Dnp). Moreover, the KM with Abz-VDVADPA-Dap (Dnp) turned out to be 390 µM; with Abz-VDVADHA-Dap (Dnp) it was 170 µM; with Abz-VDVADTA-Dap (Dnp) it was 140 µM; with Abz-VDVADLA-Dap (Dnp) it was 300 µM; with Abz-VDVADFA-Dap (Dnp), 86 µM; in the series with Abz-VDVADYA-Dap (Dnp) it was 350 µM. The KM in the series with Abz-VDVADNA-Dap (Dnp) was found to be 110 µM.

B5: T7AC-6H-cpCasp2_sar (protein)
chain: MLEDPERNKERKEAELQAQTAEQHHHHHHGKEHMASPGCEQSAAGKEKILKMRLPTRSDMICGYACLKGTAAMRNTKRGSWYIEALTQVFSERARDMHVADMLVKVNALIKDREGYAPGTEFHRCKEMSEYSSTLCRHLYLFPGHPPTGSGPPSLQVKPCTSEFYRTHHHLAYRLQSRPRGLALVLSNVHFNGEKDLEFRSGGDVDHSSLVTLFKLLDYDVHVLRDQTAQEMYEKLQRFAQLSTHQNTDSCVVALLSHGIEGGIYGVDGQLLQLQEVFQLFDNANCPNLQNKPKMFFIQACRGDETDRGVDLRD
For B5, the KM in the series with Abz-VDVADQA-Dap (Dnp) is 94 µM; in the series with Abz-VDVADVA-Dap (Dnp), 34 µM; in the series with Abz-VDVADGA-Dap (Dnp), 48 µM; with Abz-VDVADFA-Dap (Dnp) it was 44 µM.

B6: T7AC-6H-cpCasp2_sar_E105V, E172V (protein)
chain: MLEDPERNKERKEAELQAQTAEQHHHHHHGKEHMASPGCEQSAAGKEKILKMRLPTRSDMICGYACLKGTAAMRNTKRGSWYIEALTQVFSERARDMHVADMLVKVNALIKDREGYAPGTEFHRCKVMSEYSSTLCRHLYLFPGHPPTGSGPPSLQVKPCTSEFYRTHHHLAYRLQSRPRGLALVLSNVHFNGVKDLEFRSGGDVDHSSLVTLFKLLDYDVHVLRDQTAQEMYEKLQRFAQLSTHQNTDSCVVALLSHGIEGGIYGVDGQLLQLQEVFQLFDNANCPNLQNKPKMFFIQACRGDETDRGVDLRD
Consider B6, for which the Michaelis-Menten constant (KM) with Abz-VDVADQA-Dap (Dnp) came out at 120 µM; with Abz-VDVADVA-Dap (Dnp), 69 µM; in the series with Abz-VDVADGA-Dap (Dnp) it was 31 µM; in the series with Abz-VDVADFA-Dap (Dnp), 52 µM.

B7: wt caspase-2 (human, produced in E. coli with poly-his-tag) (protein)
chain: GPVCLQVKPCTPEFYQTHFQLAYRLQSRPRGLALVLSNVHFTGEKELEFRSGGDVDHSTLVTLFKLLGYDVHVLCDQTAQEMQEKLQNFAQLPAHRVTDSCIVALLSHGVEGAIYGVDGKLLQLQEVFQLFDNANCPSLQNKPKMFFIQACRGDETDRGVDQQDGKNHAGSPGCEESDAGKEKLPKMRLPTRSDMICGYACLKGTAAMRNTKRGSWYIEALAQVFSERACDMHVADMLVKVNALIKDREGYAPGTEFHRCKEMSEYCSTLCRHLYLFPGHPPTHHHHHH
Turning to B7, the Michaelis constant (KM) with Abz-VDVADQA-Dap (Dnp) came out at 110 µM; with Abz-VDVADVA-Dap (Dnp) it was 86 µM; with Abz-VDVADGA-Dap (Dnp) it was 97 µM; in the series with Abz-VDVADFA-Dap (Dnp), 79 µM.

For the origin of these results see patent US20220380739.
